The values below come from patent publication US20200079847A1 (H LUNDBECK A S, published 2020).

Like-named read-outs stand apart in the source and are kept apart here.

The target in experiment [1] is T1, Vasoactive Intestinal Peptide (VIP) (human).
T1 construct: also called human VIP
T1 peptide: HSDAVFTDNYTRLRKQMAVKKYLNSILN
Description: competitive HTRF: unlabelled VIP (10x) against biotinylated PACAP38 (35 nM) for the titrated antibody. As to the method:
In parallel, 10 μl of an antibody dilution series (highest final concentration of 100 nM) were incubated with 10 μl of N-terminal or C-terminal biotinylated PACAP38 (35 nM final) alone, or in combination with either PACAP27 (350 nM final) or VIP (350 nM final), i.e., 10× PACAP27 or 10×VIP, respectively, in a HTRF plate. 20 μl of Eu³⁺ cryptate labeled anti-hu Fc donor and 20 μl of d2-labeled streptavidin acceptor were added to each well and incubated for 1 hour at room temperature. Fluorescence was measured at 620 and 665 nm with a delay of […].
For orientation: Time-resolved FRET reads energy transfer from a long-lived donor to a nearby acceptor.

Experiment [2] has as its target T2, Pituitary Adenylate Cyclase-Activating Polypeptide 27 (PACAP27) (Homo sapiens, C-terminal leucine is amidated).
T2 peptide: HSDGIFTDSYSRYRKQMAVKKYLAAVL
Description: SPR, antibody immobilized. As to the method:
(§1) Binding affinities of monoclonal antibodies for human PACAP were estimated using SPR on the PROTEON™ XPR36 (Bio-Rad, Hercules, Calif.). Antibody was immobilized to the surface of general amine coupling (“GLC” or “GLM”) Chips (Bio-Rad, Hercules, Calif.). […] Antigen (ranging from 1.23 nM to 100 nM) was typically run sequentially with association times of 2-4 minutes and dissociation times of 3-120 minutes grouped with the PROTEON™ Manager Software (v3.1.0.6 (Bio-Rad, Hercules, Calif.)) and fitted using a 1:1 Langmuir binding model.
(In general: In SPR one partner is held on a chip, and binding of the other changes the refractive index at the surface.)

For experiment [3], the target named is T3, Pituitary Adenylate Cyclase-Activating Polypeptide 38 (PACAP38) (Homo sapiens, C-terminal lysine is amidated).
T3 construct: unlabeled peptide in SPR; also called human PACAP; huPACAP (1-38)
T3 peptide: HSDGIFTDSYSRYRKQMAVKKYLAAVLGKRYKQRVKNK
Description: DELFIA TRF cell-surface binding: antibody pre-incubated with PACAP38, complex added to PAC1-R-expressing PC-12 cells, Eu anti-human IgG detection; PACAP38 held on the cell surface is the target.

Experiment [4] deals with T3, Pituitary Adenylate Cyclase-Activating …. Briefly: cell-based or functional assay.
The target is the same in experiment [5]. Briefly: cell-based or functional assay.
The target of experiment [6] is T2, Pituitary Adenylate Cyclase-Activating …. Briefly: cell-based or functional assay.
Experiment [7] concerns the target T3, Pituitary Adenylate Cyclase-Activating …. Briefly: cell-based or functional assay.
Experiment [8] has the same target. Briefly: DELFIA TRF cell-surface binding: antibody pre-incubated with PACAP38, complex added to PAC1-R-expressing PC-12 cells, Eu anti-human IgG detection; PACAP38 held on the cell surface is the target.
Experiment [9] has the same target. The experiment is described as above.
Experiment [10] has the same target. Briefly: SPR, antibody immobilized. On the procedure:
as §1

The target is the same in experiment [11]. Briefly: DELFIA TRF cell-surface binding: antibody pre-incubated with PACAP38, complex added to PAC1-R-expressing PC-12 cells, Eu anti-human IgG detection; PACAP38 held on the cell surface is the target.

B1: Ab3 (antibody, human IgG1, kappa, N297A, V domains shown)
VH: QEQLVESGGGLVQPEGSLTLTCTASGFSFSSSDYMCWVRQAPGKGLEWIGCIDAGSSGDTYFASWAKGRFTISKTSSTTVTLQMTSLTAADTATYFCARHLYGSITFAFGLWGQGTLVTVSS
VL: AAVLTQTPSPVSAAVGGTVTINCQASQSIGSDLAWYQQKPGQPPKLLIYDASTLASGVPSRFSGSGSGTQFTLTISGVQCDDAATYYCQGTYYSSGWYTAFGGGTEVVVKR
notes: full-length antibody, rabbit variable regions on human constant regions
For B1, in experiment [1], the binding result was “no binding”.

B2: Ab4.H (antibody, V domains shown)
VH: EVQLVESGGGLVQPGGSLRLSCAASGFSLSSYDMSWVRQAPGKGLEWIGIINTNDDTWYASWVKGRFTISRDNSKNTLYLQMNSLRAEDTAVYYCARISDAYVFDYAYYFTLWGQGTLVTVSS
VL: DIQMTQSPSTLSASVGDRVTITCLASQNIYNSLAWYQQKPGKAPKLLIYRASTLASGVPSRFSGSGSGTEFTLTISSLQPDDFATYYCQQGAGADNIGNPFGGGTKVEIKR
What is called Kd is a measure of binding affinity in units of concentration. As a reminder, the koff is the first-order rate constant of dissociation. Low readings indicate slow dissociation, high ones fast dissociation. Broadly, the EC50 (read off the curve) is the concentration needed to bring the measured effect to its halfway point. Low readings indicate greater potency, high ones weaker potency. In experiment [2], B2 returned an equilibrium dissociation constant (Kd) of 0.031 nM and an off-rate (koff) of 1e-05 s⁻¹. Further, the “EC50 (read off the curve)” value in experiment [3] was roughly 4 nM.

B3: Ab10.H (antibody, V domains shown)
VH: EVQLVESGGGLVQPGGSLRLSCAASGIDLNSYYMTWVRQAPGKGLEWIGFIDAGGDAYYASWAKGRFTISRDNSKNTVYLQMNSLRAEDTAVYFCARDLDLWGQGTLVTVSS
VL: DAQLTQSPSTLSASVGDRVTITCQSSESVYGNYLAWFQQKPGKAPKFLIYEASKLESGVPSRFSGSGSGTEFTLTISSLQPDDFATYYCAGGDISEGVAFGGGTKVEIKR
For the molecule B3, the “IC50, 5 nM PACAP38-induced human VPAC1-R mediated cAMP increase” value in experiment [4] worked out at 1.34 nM. Also, the “IC50, 0.1 nM PACAP38-induced PAC1-R mediated cAMP increase” value in experiment [5] worked out at 0.163 nM. In addition, in experiment [6], the “IC50, 0.1 nM PACAP27-induced PAC1-R mediated cAMP increase” value came to 0.084 nM. Further, the “IC50, 1 nM PACAP38-induced human VPAC2-R mediated cAMP increase” value in experiment [7] was 0.988 nM.

B4: Ab1 (antibody, human IgG1, kappa, N297A, V domains shown)
VH: QSVEESGGRLVTPGTPLTLTCTVSGFSLSSAVMNWVRQAPGKGLEWIGSIVASGTTYYASWANGRFTISKTSSTTMDLKMTSPTTEDTATYFCARGGGEFFIWGPGTLVTVSS
VL: DPVMTQTPSSTSAAVGGTVTISCQSSESVYSNYLSWYQQKPGQPPNFLIYQASNLASGVPSRFKGSGSGTQFTLTITDLECDDAATYYCAGGYSENIVGFGGGTEVVVKR
notes: as for B1
Regarding B4, the Kd in experiment [2] was no more than 0.01 nM.

B5: Ab9 (antibody, human IgG1, kappa, N297A, V domains shown)
VH: EQSGGGAEGGLVKPGGSLKLSCKASGFTISRDYWICWVRQAPGKGLEWIGCISAGGGSTDYANWVNGRFTLSRDIDQSTGCLQLNSLTDADTAMYYCAGNLEIWGQGTLVTVSS
VL: AQVLTQTPSSVSAAVGGTVTINCQSSPSIYSGAFLSWFQQKPGQPPKFLIYEASKLASGVPSRFSGSGSGTQFTLTISDVQCDDAATYYCLGFYDCSSVDCHAFGGGTEVVVKR
notes: as for B1
With B5, the binding result in experiment [1] was “no binding”.

B6: Ab5.H (antibody, V domains shown)
VH: EVQLVESGGGLVQPGGSLRLSCAASGFSLSSYAMIWVRQAPGKGLEWVGIIYDNGDTYYASSAKGRFTISRDNSKNTVYLQMNSLRAEDTAVYFCAREPGSTTQNDLWGQGTLVTVSS
VL: DVQMTQSPSTLSASVGDRVTITCQASENIYNSLLWYQQKPGKAPKLLIYRASTLASGVPSRFSGSGSGTEFTLTISSLQPDDFATYYCQNYYNIWTNGAAFGGGTKVEIKR
In the case of B6, the “EC50 (read off the curve)” value in experiment [8] is roughly 3 nM.

B7: Ab3.H (antibody, V domains shown)
VH: EVQLVESGGGLVQPGGSLRLSCAASGFSFSSSDYMCWVRQAPGKGLEWIGCIDAGSSGDTYFASSAKGRFTISRDNSKNTVYLQMNSLRAEDTAVYFCARHLYGSITFAFGLWGQGTLVTVSS
VL: AAQMTQSPSTLSASVGDRVTITCQASQSIGSDLAWYQQKPGKAPKLLIYDASTLASGVPSRFSGSGSGTEFTLTISSLQPDDFATYYCQGTYYSSGWYTAFGGGTKVEIKR
For B7, in experiment [9], the “EC50 (read off the curve)” value is roughly 3 nM.

B8: Ab12.H (antibody, V domains shown)
VH: EVQLVESGGGLVQPGGSLRLSCAASGFSLSSYAMGWVRQAPGKGLEWIGDISTYGTTDYASWVYGRFTISRDNSKNTVYLQMNSLRAEDTAVYFCARDYWLSLWGQGTLVTVSS
VL: AAQLTQSPSTLSASVGDRVTITCQSSQSVYDNNALAWYQQKPGKAPKLLIYAASTLASGVPSRFSGSGSGTEFTLTISSLQPDDFATYYCLGGYYDPADNAFGGGTKVEIKR
In experiment [10], B8 had a Kd of 0.026 nM and a koff of 1e-05 s⁻¹. Also, the “EC50 (read off the curve)” value in [11] is roughly 3 nM.
